From patent publication US9872921B2, “DE-N-acetyl sialic acid antigens, antibodies thereto, and methods of use in cancer therapy” (priority 2004, dated 2018)

Key:
[1] = tested on: SK-MEL 28 cells; assay: Cell cycle analysis by propidium iodide staining and flow cytometry; type: cell-based, human; details: 48 h incubation
Protocol: To further assess the affect of SEAM 3 mAb on cell growth, the stage of the cell cycle after treatment with SEAM 3 was determined. In this experiment, the cells were stained with the fluorescent DNA binding dye propidium iodide to characterize cell populations in various stages of the cell cycle and the effects of adding control antibodies, nocodazole (a drug that arrest the cells in mitosis) and SEAM 3.
Approximately 10^5 SK-MEL 28 cells were plated on a 96-well tissue culture plate and allowed to adhere. After 24 h the medium was replaced with one that had either antibody or drug and incubated for a further 48 h. Cells were spun (to collect any cells that may have detached), and fixed in 70% ice-cold methanol (added drop wise) for at least 30 minutes at 4° C. The cells were washed twice with PBS, and to ensure that only DNA was stained, the fixed cells were treated with ribonuclease I (100 μg/ml, source) for 30 minutes at 37° C. Propidium iodide (50 μg/ml) was added and samples were analyzed using a Guava EasyCyte flow cytometer.

[2] = tested on: Jurkat T-cell leukemia cells; assay: Fluorescence microscopy binding to cells; type: cell-based, human; details: without Triton
Protocol: After an overnight incubation cells were gently washed with PBS buffer and fixed with ice-cold 1% (v/v) formaldehyde. After 20 minutes cells were washed with PBS before blocking non-specific binding with a solution of 3% goat serum for 1 hour. To observe the presence of SEAM 3-reactive antigen that is present inside the cells, the cells were treated Triton X-100 0.5% w/v in 3% goat serum for 1 hour. The primary antibodies were added and incubated for 2 hours or overnight at 4° C. Cells were gently washed by a series (at least twice) with ice-cold PBS before isotype-specific secondary antibody (produced in goat) conjugated with either Alexa Fluor 488 (immunofluorescence and confocal), Alexa Fluor 546 (confocal) Alexa Fluor 594 (immunofluorescence), Alexa Fluor 633 (confocal) was applied for at least 1 hour at 4° C. in the dark (all secondary antibodies conjugated to fluorophores were obtained from Invitrogen, Carlsbad, Calif.). After another series of gentle washes, a hardening mounting medium containing DAPI was applied.
Confocal images were obtained using a Zeiss Meta510 CLSM at the Biological Imaging Facility, University of California, Berkeley, Calif. and were analyzed using ImageJ Software (NIH). Control antibodies and secondary antibodies applied alone were routinely used to assess background fluorescence.

[3] = tested on: normal tissues; assay: Immunohistochemistry on micro array of normal tissues; parameters: species or system human; details: 17 samples
Protocol: Human tissue microarrays were obtained from US BioMax (Rockville, Md.). The tissue microarrays were deparaffinized in xylene (2 changes, 10 minutes each) then rehydrated by sequential 5 minute washes in 100% ethanol, 95% ethanol, 70% ethanol, 50% ethanol, and PBS buffer. Endogenous peroxidase was blocked by incubation with Peroxidazed 1 solution (Biocare, Concord, Calif.) for 5 minutes at ambient temperature. The sections were blocked with Terminator (Biocare) containing streptavidin then rinsed with PBS buffer. The primary antibody (purified SEAM 3 (vide infra), irrelevant IgG2b control, etc. at concentrations of 1 to 5 μg/ml)) was diluted in Da Vinci Green dilution buffer (Biocare) and incubated either overnight at 4 degrees C. or for 1 hour at ambient temperature. The slides were washed 3 times for 10 minutes each with PBS buffer then incubated with biotin conjugated rabbit anti-mouse IgG secondary antibody (5 μg/ml, Vector Labs, Burlingame, Calif.) for 30 minutes at ambient temperature. After washing 3 times for 10 minutes each with PBS buffer, horse radish peroxidase-streptavidin conjugate (Vector Labs) was added and incubated at ambient temperature for 30 minutes. The slides were washed 3 times for 10 minutes each with PBS buffer and incubated with AEC substrate (Vector Labs) containing hydrogen peroxide for color development. […]

[4] = tested on: human tumors; assay: Immunohistochemistry on formalin-fixed paraffin embedded tissue microarrays of human tumors; details: primary antibody 1 to 5 μg/ml; 47 human tumors
Protocol: Initial immunohistochemical analysis of antigens recognized by SEAM 3 was performed on unfixed tissues out of concern that the de-N-acetyl amino groups could be blocked by reaction with formaldehyde (vide supra). Subsequently, it was determined that the amino group in de-N-acetyl sialic acid is relatively unreactive as a result of its close proximity to the C1 carboxyl group. Therefore, large scale screening of human tumors for the presence of SEAM 3-reactive antigens was performed using formalin-fixed paraffin embedded tissue sections since processing the samples by this method considerably improves the preservation of cell structural features.
Human tissue microarrays were obtained from US BioMax (Rockville, Md.). The tissue microarrays were deparaffinized in xylene (2 changes, 10 minutes each) then rehydrated by sequential 5 minute washes in 100% ethanol, 95% ethanol, 70% ethanol, 50% ethanol, and PBS buffer. Endogenous peroxidase was blocked by incubation with Peroxidazed 1 solution (Biocare, Concord, Calif.) for 5 minutes at ambient temperature. The sections were blocked with Terminator (Biocare) containing streptavidin then rinsed with PBS buffer. […]

B1: SEAM 3: murine anti-N-Pr NmB polysaccharide monoclonal antibody (IgG2b), ATCC Deposit No. HB-12170 (antibody, V domains shown)
VH: EVKLQESGGGLVQPGDSLSLSCAASGFTFTPYYMGWVRQPPGKALEWLGYIRNKANGYTTEYSASVKGRFTISRDNSQSILYLQMNALRAEDSATYYCARYARGTVDSWGQGTTLTVS
VL: DIVMTQSPLTLSVTIGQPASISCKSSQSLLHSNGKTYLNWLLQRPGQSPKLLIYLVSKLESGVPDRFSGSGSGTDFTLKISRVEAEDLGLYYCLQIIHFPHTFGAGTKLELKRA
modifications: mouse
In the case of B1, the “effect on cell cycle phase distribution” value [1] is reported as “reduced the proportion of cells in Go, S-phase and G2/M Phase, while increasing the number in pre-Go”, the “binding to cell surface by microscopy” value [2] is reported as “fluorescence is uniform over the cell surface” and the “normal tissue samples positive for binding” value [3] is reported as 15 of 17. The “staining grade in positive normal tissue samples” value [3] was “+ to ++” and the “tumor samples positive for binding” value [4] was 38 of 47.
